Experimental findings from the supplement of paper PMC7877785 are described below.

± gives the uncertainty stated by the source.

The series in a line: self-splicing fitness, log relative to wild type (ln ratio); higher = more splicing; Tetrahymena group I intron in knt gene, E. coli kanamycin selection, DiMSum; sequences stand for … in CUCUCU…GGAGGGAAAAGUUAUCAGGCAUGCACCUGGUAGCUAGUCUUUAAACCAAUAGAUUGCAUCGGUUUAAAAGGCAAGACCGUCAAAUUGCGGGAAAGGGGUCAACAGCCGUUCAGUACCAAGUCUCAGGGGAAACUUUGAGAUGGCCUUGCAAAGGGUAUGGUAAUAAGCUGACGGACAUGGUCCUAACCACGCAGCCAAGUCCUAAGUCAACAGAUCUUCUGUUGAUAUGGAUGCAGUUCACAGACUAAAUGUCGGUCGGGGAAGAUGUAUUCUUCUCAUAAGAUAUAGUCGGACCUCUCCUUAAUGGGAGCUAGCGGAUGAAGUGAUGCAACACUGGAGCCGCUGGGAACUAAUUUGUAUGCGAAAGUAUAUUGAUUAGUUUUGGAGUACUCGUGGUCG
An outline of the steps:
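Colonies from six replicate transformations of E. coli BL21(DE3) were pooled and amplicon-sequenced on an Illumina HiSeq 2500. The library placed an intron with all eight P1ex-region nucleotides randomised inside the knt kanamycin-resistance gene on pET-22b(+), and cells grew overnight at 37°C or 30°C on LB agar with or without 25 μg/mL kanamycin (plus 100 μg/mL carbenicillin, 50 μM IPTG, 0.2% rhamnose). Fitness is the DiMSum error-weighted combination of wild-type-normalised replicate fold changes, kanamycin versus none.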

Consider CCUCAGCAAUAUUACGCCCC, for which the “self-splicing fitness (ln)” value (37 °C) is -1.39 ± 0.35.
Take CCUCAGCAAUAUUACGCGGA: the “self-splicing fitness (ln)” value runs as follows: (30 °C) -2.68 ± 0.22; (37 °C) -3.28 ± 0.26.
For CCUCAGCAAUAUUACGCGGU, in that order: -3.37 ± 0.19 and -2.98 ± 0.33.
For CCUCAGCAAUAUUACGCUAG, in that order: -4.45 ± 0.38 and -1.04 ± 0.22.
For the sequence CCUCAGCAAUAUUACGGCAC, the “self-splicing fitness (ln)” value is, setting by setting: (30 °C) -3.55 ± 0.15; (37 °C) -2 ± 0.17.
In the same order, the values of CCUCAGCAAUAUUACGGCCG are -2.11 ± 0.1 and -0.442 ± 0.11.
For CCUCAGCAAUAUUACGGCGG, in that order: -3.33 ± 0.15 and -3.35 ± 0.35.
For CCUCAGCAAUAUUACGGCUU, the “self-splicing fitness (ln)” value (30 °C) is -1.94 ± 0.16 and the “self-splicing fitness (ln)” value (37 °C) was -2.28 ± 0.21.
For CCUCAGCAAUAUUACGGGGG, in that order: -4.13 ± 0.28 and -2.9 ± 0.23.
In the same order, the values of CCUCAGCAAUAUUACGUAUU are -4.06 ± 0.24 and -2.61 ± 0.21.
In the same order, the values of CCUCAGCAAUAUUACGUCAU are -3.03 ± 0.13 and -1.77 ± 0.18.
On to CCUCAGCAAUAUUACGUCCA, for which the “self-splicing fitness (ln)” value was -2.26 ± 0.14 (30 °C) and -3 ± 0.29 (37 °C).
CCUCAGCAAUAUUACGUGGA: the “self-splicing fitness (ln)” value was -3.84 ± 0.18 (30 °C) and -3.02 ± 0.2 (37 °C).
Consider CCUGAGCAAUAUUACGAACU, for which the “self-splicing fitness (ln)” value runs as follows: (30 °C) -3.4 ± 0.13; (37 °C) -2.42 ± 0.17.
In the same order, the values of CCUGAGCAAUAUUACGAAUA are -2.69 ± 0.38 and -1.35 ± 0.21.
For CCUGAGCAAUAUUACGAAUC, in that order: -3.69 ± 0.33 and -2.34 ± 0.43.
In the same order, the values of CCUGAGCAAUAUUACGACAC are -2.49 ± 0.49 and -2.19 ± 0.28.
CCUGAGCAAUAUUACGAGGU: the “self-splicing fitness (ln)” value runs as follows: (30 °C) -2.72 ± 0.17; (37 °C) -1.99 ± 0.15.
Consider CCUGAGCAAUAUUACGAUCA, for which the “self-splicing fitness (ln)” value was -3.05 ± 0.32 (30 °C) and -2.42 ± 0.24 (37 °C).
For CCUGAGCAAUAUUACGAUGU, in that order: -1.94 ± 0.084 and -1.71 ± 0.098.
With CCUGAGCAAUAUUACGAUUC, the “self-splicing fitness (ln)” value (30 °C) was -3.56 ± 0.27.
Turning to CCUGAGCAAUAUUACGCCCA, the “self-splicing fitness (ln)” value is -3.82 ± 0.47 (30 °C) and -2.05 ± 0.34 (37 °C).
In the same order, the values of CCUGAGCAAUAUUACGCCUC are -2.22 ± 0.29 and -1.88 ± 0.3.
In the same order, the values of CCUGAGCAAUAUUACGCCUG are -3.03 ± 0.26 and -2.47 ± 0.25.
Take CCUGAGCAAUAUUACGGACC: the “self-splicing fitness (ln)” value (37 °C) is -3.02 ± 0.43.
Consider CCUGAGCAAUAUUACGGAUC, for which the “self-splicing fitness (ln)” value was -2.1 ± 0.17 (30 °C) and -2.53 ± 0.22 (37 °C).
CCUGAGCAAUAUUACGGCGC: the “self-splicing fitness (ln)” value (30 °C) is -4.1 ± 0.28.
As for CCUGAGCAAUAUUACGGGGU, the “self-splicing fitness (ln)” value was -3.44 ± 0.24 (30 °C) and -3.06 ± 0.27 (37 °C).
In the same order, the values of CCUGAGCAAUAUUACGGUCC are -1.71 ± 0.36 and -1.22 ± 0.43.
For CCUGAGCAAUAUUACGUAGG, in that order: -2.55 ± 0.15 and -2.24 ± 0.32.
For CCUGAGCAAUAUUACGUAUG, in that order: -2.38 ± 0.11 and -1.56 ± 0.11.
For the sequence CCUGAGCAAUAUUACGUCUG, the “self-splicing fitness (ln)” value was -2.44 ± 0.14 (30 °C) and -1.4 ± 0.13 (37 °C).
As to CCUUAGCAAUAUUACGAAGC, the “self-splicing fitness (ln)” value runs as follows: (30 °C) -3.24 ± 0.3; (37 °C) -1.56 ± 0.32.
For the sequence CCUUAGCAAUAUUACGACAU, the “self-splicing fitness (ln)” value runs as follows: (30 °C) -3.677 ± 0.028; (37 °C) -2.85 ± 0.043.
Take CCUUAGCAAUAUUACGACCG: the “self-splicing fitness (ln)” value is 0.294 ± 0.11 (30 °C) and -0.348 ± 0.18 (37 °C).
For CCUUAGCAAUAUUACGACCU, in that order: -2.79 ± 0.2 and -1.77 ± 0.29.
For CCUUAGCAAUAUUACGACGU, in that order: -2.25 ± 0.18 and -1.9 ± 0.23.
For CCUUAGCAAUAUUACGAUUC, the “self-splicing fitness (ln)” value is -3.68 ± 0.25 (30 °C) and -3.28 ± 0.47 (37 °C).
In the same order, the values of CCUUAGCAAUAUUACGCUCA are -3 ± 0.21 and -1.94 ± 0.3.
For CCUUAGCAAUAUUACGGACU, in that order: -2.41 ± 0.19 and -2.89 ± 0.43.
In the same order, the values of CCUUAGCAAUAUUACGGAUG are -1.72 ± 0.064 and -0.271 ± 0.08.
For CCUUAGCAAUAUUACGGAUU, the “self-splicing fitness (ln)” value by setting is: (30 °C) -3.31 ± 0.22; (37 °C) -2.38 ± 0.36.
For CCUUAGCAAUAUUACGGCAG, in that order: -1.83 ± 0.12 and -2.73 ± 0.2.
Turning to CCUUAGCAAUAUUACGGCCA, the “self-splicing fitness (ln)” value is, setting by setting: (30 °C) -3.46 ± 0.41; (37 °C) -1.69 ± 0.18.
As to CCUUAGCAAUAUUACGGCCG, the “self-splicing fitness (ln)” value reads like this: (30 °C) -1.85 ± 0.23; (37 °C) -0.27 ± 0.35.
On to CCUUAGCAAUAUUACGGGAG, for which the “self-splicing fitness (ln)” value (30 °C) was -3.19 ± 0.23 and the “self-splicing fitness (ln)” value (37 °C) is -3.67 ± 0.39.
Turning to CCUUAGCAAUAUUACGGUGA, the “self-splicing fitness (ln)” value by setting is: (30 °C) -3.63 ± 0.35; (37 °C) -2.91 ± 0.27.
For CCUUAGCAAUAUUACGUAGC, in that order: -2.7 ± 0.18 and -1.8 ± 0.21.
In the same order, the values of CCUUAGCAAUAUUACGUAGG are -2.83 ± 0.14 and -2.83 ± 0.18.
Take CCUUAGCAAUAUUACGUAUA: the “self-splicing fitness (ln)” value (37 °C) was -3.25 ± 0.37.
For the sequence CCUUAGCAAUAUUACGUCUC, the “self-splicing fitness (ln)” value (37 °C) is -2.63 ± 0.3.
On to CCUUAGCAAUAUUACGUGAC, for which the “self-splicing fitness (ln)” value is -3.61 ± 0.28 (30 °C) and -2.68 ± 0.28 (37 °C).
In the same order, the values of CCUUAGCAAUAUUACGUUUC are -1.94 ± 0.18 and -1.11 ± 0.46.
In the same order, the values of CGAAAGCAAUAUUACGACGU are -0.439 ± 0.067 and 0.0287 ± 0.078.
For CGAAAGCAAUAUUACGAGCU, in that order: -2.9 ± 0.12 and -1.59 ± 0.13.
For the sequence CGAAAGCAAUAUUACGAGUC, the “self-splicing fitness (ln)” value runs as follows: (30 °C) -2.98 ± 0.18; (37 °C) -2.22 ± 0.35.
For CGAAAGCAAUAUUACGAGUG, in that order: -0.203 ± 0.049 and 0.0139 ± 0.065.
For the sequence CGAAAGCAAUAUUACGAUCA, the “self-splicing fitness (ln)” value runs as follows: (30 °C) -0.312 ± 0.1; (37 °C) 0.699 ± 0.13.
For CGAAAGCAAUAUUACGAUUA, in that order: -1.48 ± 0.11 and -1.06 ± 0.13.
On to CGAAAGCAAUAUUACGCCAC, for which, for the setting “30 °C”, the “self-splicing fitness (ln)” value is -2.32 ± 0.37.
As to CGAAAGCAAUAUUACGCCAU, the “self-splicing fitness (ln)” value (30 °C) is -3.31 ± 0.45 and the “self-splicing fitness (ln)” value (37 °C) was -2.78 ± 0.43.
For CGAAAGCAAUAUUACGCCCA, in that order: -0.283 ± 0.12 and 0.0973 ± 0.15.
